Assay results from the supplement of paper PMC11246515.
± gives the standard deviation of the averaged measurements.

Test: total protein half-life in vivo (active degradation + dilution); higher = more stable protein
[1] = E. coli NCM3722 delta-clpP delta-lon delta-hslV, growth: N-lim chemostat, doubling time 6 h
[2] = E. coli NCM3722 delta-clpP, growth: N-lim chemostat, doubling time 6 h
[3] = E. coli NCM3722 delta-hslV, growth: N-lim chemostat, doubling time 6 h
[4] = E. coli NCM3722 delta-lon, growth: N-lim chemostat, doubling time 6 h
[5] = E. coli NCM3722 delta-smpB, growth: N-lim chemostat, doubling time 6 h
[6] = wild type E. coli NCM3722, growth: C-lim chemostat, doubling time 3 h
[7] = wild type E. coli NCM3722, growth: C-lim chemostat, doubling time 6 h
[8] = wild type E. coli NCM3722, growth: C-lim chemostat, doubling time 12 h
[9] = wild type E. coli NCM3722, growth: N-lim chemostat, doubling time 6 h
[10] = wild type E. coli NCM3722, growth: N-lim chemostat, doubling time 12 h
[11] = wild type E. coli NCM3722, growth: P-lim chemostat, doubling time 12 h
[12] = wild type E. coli NCM3722, growth: P-lim chemostat, doubling time 6 h

Row | Sequence | total protein half-life in vivo [1] [h] | total protein half-life in vivo [2] [h] | total protein half-life in vivo [3] [h] | total protein half-life in vivo [4] [h] | total protein half-life in vivo [5] [h] | total protein half-life in vivo [6] [h] | total protein half-life in vivo [7] [h] | total protein half-life in vivo [8] [h] | total protein half-life in vivo [9] [h] | total protein half-life in vivo [10] [h] | total protein half-life in vivo [11] [h] | total protein half-life in vivo [12] [h]
1 | MNKIFSSHVMPFRALIDACWKEKYTAARFTRDLIAGITVGIIAIPLAMALAIGSGVAPQYGLYTAAVAGIVIALTGGSRFSVSGPTAAFVVILYPVSQQFGLAGLLVATLLSGIFLILMGLARFGRLIEYIPVSVTLGFTSGIGITIGTMQIKDFLGLQMAHVPEHYLQKVGALFMALPTINVGDAAIGIVTLGILVFWPRLGIRLPGHLPALLAGCAVMGIVNLLGGHVATIGSQFHYVLADGSQGNGIPQLLPQLVLPWDLPNSEFTLTWDSIRTLLPAAFSMAMLGAIESLLCAVVLDGMTGTKHKANSELVGQGLGNIIAPFFGGITATAAIARSAANVRAGATSPISAVIHSILVILALLVLAPLLSWLPLSAMAALLLMVAWNMSEAHKVVDLLRHAPKDDIIVMLLCMSLTVLFDMVIAISVGIVLASLLFMRRIARMTRLAPVVVDVPDDVLVLRVIGPLFFAAAEGLFTDLESRLEGKRIVILKWDAVPVLDAGGLDAFQRFVKRLPEGCELRVCNVEFQPLRTMARAGIQPIPGRLAFFPNRRAAMADL [P0AFR2] | 5.99 ± 0.062 | 6.21 ± 0.72 | 5.51 | 5.97 ± 0.73 | 5.82 ± 0.46 | 1.95 | 6.39 ± 0.93 | > 16 | 6.43 ± 1.8 | > 16 | 7.77 | –
2 | MEDLNVVDSINGAGSWLVANQALLLSYAVNIVAALAIIIVGLIIARMISNAVNRLMISRKIDATVADFLSALVRYGIIAFTLIAALGRVGVQTASVIAVLGAAGLAVGLALQGSLSNLAAGVLLVMFRPFRAGEYVDLGGVAGTVLSVQIFSTTMRTADGKIIVIPNGKIIAGNIINFSREPVRRNEFIIGVAYDSDIDQVKQILTNIIQSEDRILKDREMTVRLNELGASSINFVVRVWSNSGDLQNVYWDVLERIKREFDAAGISFPYPQMDVNFKRVKEDKAA [P0C0S1] | 6.89 ± 0.37 | 7.53 ± 0.59 | – | 6.91 ± 1.2 | 5.91 ± 0.16 | – | 6.24 ± 0.12 | 12.81 ± 0.023 | – | 12.7 ± 0.82 | 13.2 ± 0.67 | 6.423 ± 0.022
3 | MDNDKIDQHSDEIEVESEEKERGKKIEIDEDRLPSRAMAIHEHIRQDGEKELERDAMALLWSAIAAGLSMGASLLAKGIFQVELEGVPGSFLLENLGYTFGFIIVIMARQQLFTENTVTAVLPVMQKPTMSNVGLLIRLWGVVLLGNILGTGIAAWAFEYMPIFNEETRDAFVKIGMDVMKNTPSEMFANAIISGWLIATMVWMFPAAGAAKIVVIILMTWLIALGDTTHIVVGSVEILYLVFNGTLHWSDFIWPFALPTLAGNICGGTFIFALMSHAQIRNDMSNKRKAEARQKAERAENIKKNYKNPA | 6.19 ± 0.79 | 5.38 ± 0.26 | 5.3 | 5.46 | 6.11 ± 1.4 | 3.47 | 5.51 ± 0.23 | 11.5 ± 1.9 | 5.75 ± 1.1 | 13.5 ± 1.3 | 12.6 ± 0.066 | 6.29 ± 0.45
4 | MRLTAKQVTWLKVCLHLAGLLPFLWLVWAINHGGLGADPVKDIQHFTGRTALKFLLATLLITPLARYAKQPLLIRTRRLLGLWCFAWATLHLTSYALLELGVNNLALLGKELITRPYLTLGIISWVILLALAFTSTQAMQRKLGKHWQQLHNFVYLVAILAPIHYLWSVKIISPQPLIYAGLAVLLLALRYKKLRSLFNRLRKQVHNKLSV | – | – | – | – | – | – | – | – | – | 8.91 | – | –
5 | MDHSLNSLNNFDFLARSFARMHAEGRPVDILAVTGNMDEEHRTWFCARYAWYCQQMMQARELELEH | 2.86 | – | – | – | – | – | – | – | – | – | – | –
6 | MQIIFGEKCVSLLRLFFAAVLMLWCAQTAAYSGQCHTTQGNPYIGVNFGVKTLEEEANTAGVVKDKFYQWNESNDYYVSCDCDKDNVRSGRWAFAADSPLVYLGDNWYKINDYLAAKVLLQVKGSSPTAVPFENVGTGGDTRWHICDPGGQRLGGQGASGNSGSFSLKILQPFVGSVVIPPMALARLYECYNIPAGDSCTTTGTPVLVYYLSGTINSLGSCSVNAGETIEVDLGDVFAANFRVVGHKPLGARTAELAIPVRCNTGNAGLVNVNLSLTATTDPSYPQAIKTSRPGVGVVVTDSQNNIISPAGGTLPLSIPDDADSIARMNVYPVSTTGVPPETGRFEATATVRINFD | 5.52 ± 2.1 | 4.19 | 5.902 ± 0.037 | 6.21 ± 1.1 | 5.24 ± 0.2 | – | 5.54 ± 0.6 | 9.76 | 7.57 | 11.6 ± 0.54 | 12 ± 1.1 | 6
7 | MSQTSTLKGQCIAEFLGTGLLIFFGVGCVAALKVAGASFGQWEISVIWGLGVAMAIYLTAGVSGAHLNPAVTIALWLFACFDKRKVIPFIVSQVAGAFCAAALVYGLYYNLFFDFEQTHHIVRGSVESVDLAGTFSTYPNPHINFVQAFAVEMVITAILMGLILALTDDGNGVPRGPLAPLLIGLLIAVIGASMGPLTGFAMNPARDFGPKVFAWLAGWGNVAFTGGRDIPYFLVPLFGPIVGAIVGAFAYRKLIGRHLPCDICVVEEKETTTPSEQKASL [P0AER0] | – | – | – | – | – | 2.07 | 4.17 | 6.363 ± 0.04 | – | – | – | –
8 | MLSTQFNRDNQYQAITKPSLLAGCIALALLPSAAFAAPATEETVIVEGSATAPDDGENDYSVTSTSAGTKMQMTQRDIPQSVTIVSQQRMEDQQLQTLGEVMENTLGISKSQADSDRALYYSRGFQIDNYMVDGIPTYFESRWNLGDALSDMALFERVEVVRGATGLMTGTGNPSAAINMVRKHATSREFKGDVSAEYGSWNKERYVADLQSPLTEDGKIRARIVGGYQNNDSWLDRYNSEKTFFSGIVDADLGDLTTLSAGYEYQRIDVNSPTWGGLPRWNTDGSSNSYDRARSTAPDWAYNDKEINKVFMTLKQQFADTWQATLNATHSEVEFDSKMMYVDAYVNKADGMLVGPYSNYGPGFDYVGGTGWNSGKRKVDALDLFADGSYELFGRQHNLMFGGSYSKQNNRYFSSWANIFPDEIGSFYNFNGNFPQTDWSPQSLAQDDTTHMKSLYAATRVTLADPLHLILGARYTNWRVDTLTYSMEKNHTTPYAGLVFDINDNWSTYASYTSIFQPQNDRDSSGKYLAPITGNNYELGLKSDWMNSRLTTTLAIFRIEQDNVAQSTGTPIPGSNGETAYKAVDGTVSKGVEFELNGAITDNWQLTFGATRYIAEDNEGNAVNPNLPRTTVKMFTSYRLPVMPELTVGGGVNWQNRVYTDTVTPYGTFRAEQGSYALVDLFTRYQVTKNFSLQGNVNNLFDKTYDTNVEGSIVYGTPRNFSITGTYQF | – | – | – | – | – | 3.33 ± 0.05 | – | > 16 | – | – | – | –
9 | MTKQPPIAKADLQKTQGNRAPAAVKNSDVISFINQPSMKEQLAAALPRHMTAERMIRIATTEIRKVPALGNCDTMSFVSAIVQCSQLGLEPGSALGHAYLLPFGNKNEKSGKKNVQLIIGYRGMIDLARRSGQIASLSARVVREGDEFSFEFGLDEKLIHRPGENEDAPVTHVYAVARLKDGGTQFEVMTRKQIELVRSLSKAGNNGPWVTHWEEMAKKTAIRRLFKYLPVSIEIQRAVSMDEKEPLTIDPADSSVLTGEYSVIDNSEE | 5.151 ± 0.025 | – | 1.34 | – | – | 2.62 ± 0.65 | 3.79 ± 0.043 | 7.28 ± 0.72 | 1.57 | 3.39 | 4.09 ± 0.29 | –
